Measurements: publication PMC7290806, “VviWRKY40, a WRKY Transcription Factor, Regulates Glycosylated Monoterpenoid Production by VviGT14 in Grape Berry”

Molecular target: T1, VviWRKY40 (Vitis vinifera 'Muscat blanc à Petit …, UniProt E7BTN0 1-317)
T1 sequence: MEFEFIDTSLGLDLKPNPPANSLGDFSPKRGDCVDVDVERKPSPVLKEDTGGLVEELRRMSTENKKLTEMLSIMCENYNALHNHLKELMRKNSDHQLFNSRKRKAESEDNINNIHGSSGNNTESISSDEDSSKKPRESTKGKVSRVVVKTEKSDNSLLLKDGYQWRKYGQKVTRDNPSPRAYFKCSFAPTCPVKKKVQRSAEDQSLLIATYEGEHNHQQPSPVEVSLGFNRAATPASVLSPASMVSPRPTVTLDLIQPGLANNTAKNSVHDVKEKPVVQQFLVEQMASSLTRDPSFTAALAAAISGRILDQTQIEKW
Test: EMSA; shift without cold probe and with up to 50x cold probe; 50x and 200x unlabeled self-competitor tested; EMSA: LightShift Chemiluminescent kit, 50 ng protein, 15 ng probe, room temperature, 25 min (buffer and pH not stated); pull-down: poly(dI-dC), DTT, EDTA, EGTA, 4 °C, 1 h
Details: protein: recombinant; tags: 6xHis, pET32a fusion (19 kDa tag, 55 kDa in total); label: 3' biotin (Methods also says digoxigenin-labeled); blunt (duplex implied, only one strand printed)

B1: VviGT14 promoter 41-bp w-box fragment (dsDNA)
DNA 1: AGAAGTGAGAGGGTAAGTTGACCATGCACTCTCATCTAGAT
DNA 2: ATCTAGATGAGAGTGCATGGTCAACTTACCCTCTCACTTCT
binding result: binds
